Experimental data: PMC10017700, “The SMARCA4^R1157W mutation facilitates chromatin remodeling and confers PRMT1/SMARCA4 inhibitors sensitivity in colorectal cancer” (NPJ Precision Oncology, 2023)

Legend:
[1] = system: ATP (ATPase activity of SMARCA4); assay: ATPase kinetic assay (ATPase activity assay kit); assay type: biochemical
Description: An ATPase activity assay kit (#MAK113, Sigma,) was used to measure the Kinetic parameters (Vmax, Km, and Kcat) of SMARCA4 on ATP. In detail, SMARCA4-WT and -R1157W mutant proteins were incubated with saturating amounts of plasmid DNA and various concentrations of ATP. Reaction rates were determined by quantitating the fraction of ATP hydrolyzed at multiple time points. Kinetic parameters were determined by fitting the initial rate data to the Michaelis–Menten equation using the Origin software. All reactions were performed in triplicate.

[2] = system: SMARCA4-WT HCT116 cell line-derived xenograft; assay: CDX mouse model, SMARCA4-WT; assay type: in vivo, BALB/c female nude mice; conditions: oral, 14 days
Description: (§1) To establish cell line-derived xenograft (CDX) mouse models, 6-week-old BALB/c female nude mice were obtained from the Model Animal Research Center of Nanjing University (Nanjing, China). All animal experimental procedures were approved by the Animal Ethical and Welfare Committee of Nanjing University. Approximately 5 × 10^6 SMARCA4 wild-type or R1157W mutant HCT116 cells were injected subcutaneously into the right flank of each mouse. The mice were randomized into 4 groups (6 mice/group) when the tumor volume reached approximately 80 mm^3 (volume = 0.52 × length × width^2), at which point drug dosing every day was initiated. GSK-PTi (GSK3368715, HY-128717A, MCE)[32] and BBAi-1 (BRM/BRG1 ATP inhibitor-1, HY-119374, MCE)[33] were dissolved in 10% DMSO, 90% saline (containing 20% SBE-β-CD). GSK-PTi (25 mg/kg) and BBAi-1 (2.5 mg/kg) were administered orally. Body weight and tumor volume of the mice were measured every two days. Treatments were continued for 14 days, after which all mice were euthanized for analysis. Tumor tissues were weighed and prepared for immunoblotting or immunohistochemical staining. Tumor growth inhibition (TGI) rate was measured using the formula: TGI (%) = [1−(Vt−V0 in treated group)/Vt−V0 in vehicle group)]×100 where Vt is the volume on each day and V0 is the volume at the beginning of the treatment.

[3] = system: SMARCA4-R1157W mutant HCT116 cell line-derived xenograft; assay: CDX mouse model, SMARCA4-R1157W; assay type: in vivo, BALB/c female nude mice; conditions: oral, 14 days
Description: as §1

[4] = system: SMARCA2 and SMARCA4; conditions: SMARCA bromodomain inhibitor; cited from earlier work
From the text: However, SMARCA2, another core subunit of the SWI/SNF complex with ATPase activity, also harbors a highly conserved HELICc domain (Supplementary Fig. 7a). […] It would be interesting to test whether other HELICc domain-containi ...

[5] = system: mononucleosomes; assay: Nucleosome sliding assay; assay type: biochemical; conditions: 60 or 90 min, 30 °C, 2 mM ATP, Fig. 4c
Description: The nucleosome sliding assay was performed as previously described with several modifications[41],[47]. A 255 bp DNA template from the Widom 601 positioning sequence[48] was assembled into mononucleosomes by the “salt jump” method in the presence of core histones isolated from HeLa cells. Mononucleomes (100 ng DNA) were incubated with wild-type or mutant SMARCA4 proteins (100 ng) in 40 μl reactions containing 20 mM HEPES–NaOH (pH 7.9), 50 mM MgCl2, 1 mM DTT, 0.1 mM PMSF, 0.1 mg/ml BSA, 3% glycerol, 0.02% NP-40, 0.02% Triton X-100, 2 mM ATP at 30 °C for 0, 30, 60, or 90 min. Reactions were quenched by the addition of 20 mM EDTA and 1% glycerol. Samples were resolved by 6% native polyacrylamide/0.5×TBE gel electrophoresis and visualized by SYBR green staining (Invitrogen).

[6] = system: ATP (ATPase activity of SMARCA4); assay: ATPase assay, γ-32P ATP thin-layer chromatography; assay type: biochemical; conditions: in the presence of DNA, TLC, 30 °C, 0-90 min, Fig. 4b
Description: The ATPase assays were performed as described previously with modifications. The 20 μl reactions contained 50 mM Tris (pH 7.5), 50 mM NaCl, 8 mM MgCl2, 0.5 mM PMSF, 2 mM ATP, 2 mM DTT, and 1 μg of a 1 kb DNA fragment. The reaction was initiated by adding 1 μl of 10 mCi/ml [γ-^32P] ATP (3000 Ci/mmole; PerkinElmer) and 1 μg of SMARCA4 wild-type or mutant proteins. The reactions were then incubated at 30 °C for the indicated times (0, 15, 30, 60, and 90 min) and were stopped by the addition of 5 μl of 500 mM EDTA. One microliter of the reaction mixture was spotted onto PEI-cellulose TLC plates (Merck), and chromatography was run in 0.5 M LiCl, 1 M formic acid. The ratio of inorganic phosphate to ATP at each time point was quantified using a Molecular Dynamics Phosphorimager (Amersham Biosciences) and ImageQuant TL software.

[7] = over 2-fold higher, Supplementary Fig. 5c, d
[8] = GSK-PTi 25 mg/kg and/or BBAi-1 2.5 mg/kg, daily, 6 mice/group
[9] = saturating plasmid DNA, various ATP concentrations, Michaelis–Menten fit, triplicate, mean ± SD

In the case of “SMARCA4-WT mutant: as printed; probably misprint for SMARCA4-R1157W mutant protein”, the “Kcat relative to SMARCA4-WT protein” value [1, 7] is reported as “over 2 fold” and the “Vmax relative to SMARCA4-WT protein” value [1, 7] is reported as “over 2 fold”.
For `CCOCC1(COCC)CCC(c2[nH]ncc2CN(C)CCNC)CC1` [GSK-PTi], the “tumor growth inhibition (TGI) rate” value [2, 8] was 23%, the “therapeutic effect of daily single treatment” value [2] was “moderate therapeutic effect” and the “tumor growth inhibition (TGI) rate” value [3, 8] was 45.3%. The “therapeutic effect of daily single treatment (versus SMARCA4-WT CDX)” value [3] was “better therapeutic effect” and the “effect in SMARCA4-R1157W mutant versus SMARCA4-WT model mice” value ([3]; daily, comparison of the two model mouse groups) was “no statistically significant differences”.
In the case of `O=C(/C=C/N1C[C@H]2C[C@@H]1CN2c1ccccn1)c1ccccc1O` [PFI-3], the “differentiation between SMARCA2 and SMARCA4” value [4] is listed as “could not differentiate between SMARCA2 and SMARCA4”.
In the case of “SMARCA4-R1157W: R1157W mutant SMARCA4 protein”, the “Kcat / Km” value ([1]; saturating plasmid DNA, various ATP concentrations) is reported as 17.47 M⁻¹ s⁻¹, the Kcat [1, 9] is reported as 0.00242 ± 6.7e-05 s⁻¹ and the Km [1, 9] is reported as 138 ± 17.4 µM. For the same molecule, the Vmax [1, 9] was 241.6 ± 8.16 mM/min/mg, the “lateral sliding of centrally positioned nucleosomes compared to SMARCA4-WT” value [5] was “further catalyzed lateral sliding of centrally positioned nucleosomes” and the “ATPase activity compared to SMARCA4-WT” value [6] was “significantly augmented”.
